17 molecules from paper PMC10786891, “Massively parallel profiling of RNA-targeting CRISPR-Cas13d” can be followed below.

T1: EsCas13d, nuclease-dead (Eubacterium siraeum, UniProt B0MS50, R295A;H300A;R849A;H854A)
T1 sequence: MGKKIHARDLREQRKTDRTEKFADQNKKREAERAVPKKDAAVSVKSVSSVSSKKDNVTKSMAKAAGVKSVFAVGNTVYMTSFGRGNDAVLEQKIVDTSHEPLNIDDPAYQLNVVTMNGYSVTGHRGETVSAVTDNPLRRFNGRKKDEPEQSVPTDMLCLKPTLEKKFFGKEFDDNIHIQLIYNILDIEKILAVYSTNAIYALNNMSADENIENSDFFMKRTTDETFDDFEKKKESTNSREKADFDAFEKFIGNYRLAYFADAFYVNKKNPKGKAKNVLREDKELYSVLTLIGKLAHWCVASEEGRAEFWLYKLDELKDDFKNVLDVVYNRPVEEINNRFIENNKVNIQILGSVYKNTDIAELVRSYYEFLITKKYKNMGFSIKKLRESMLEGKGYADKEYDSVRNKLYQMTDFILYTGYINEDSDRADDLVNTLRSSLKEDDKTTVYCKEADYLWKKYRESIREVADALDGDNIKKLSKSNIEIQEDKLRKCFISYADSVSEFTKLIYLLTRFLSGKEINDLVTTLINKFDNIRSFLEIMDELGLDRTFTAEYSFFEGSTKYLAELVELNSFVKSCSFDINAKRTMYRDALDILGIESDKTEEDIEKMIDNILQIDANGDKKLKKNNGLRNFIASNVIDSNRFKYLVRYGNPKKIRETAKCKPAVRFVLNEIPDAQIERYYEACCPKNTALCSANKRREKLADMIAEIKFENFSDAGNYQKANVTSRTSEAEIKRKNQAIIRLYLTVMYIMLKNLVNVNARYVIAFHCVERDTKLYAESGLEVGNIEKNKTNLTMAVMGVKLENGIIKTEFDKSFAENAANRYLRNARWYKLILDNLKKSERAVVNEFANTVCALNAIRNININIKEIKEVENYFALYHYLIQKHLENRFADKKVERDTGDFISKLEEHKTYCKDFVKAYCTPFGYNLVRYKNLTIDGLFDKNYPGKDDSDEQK

B1: target 1 MT 5'PFS AAC 3'PFS ACC (mixed)
RNA 1: CACCCGUGCAAAAAUGCAGGGGUCUAAAACUGAGCGGAUAACCUCUCUAUGG
RNA 2: GGGAAUGGAUCCACAUCUACGAAUUCAACCCAUAGAGAGGUUAUCCGCUCAACCAGAUCGGAAGAGCACACGU
B2: target 1 MT 5'PFS GAC 3'PFS UCG (mixed)
RNA 1: B1 RNA 1
RNA 2: B1 RNA 2 with A27G, A52U, C54G
B3: target 1 MT 5'PFS CAA 3'PFS AUA (mixed)
RNA 1: B1 RNA 1
RNA 2: B1 RNA 2 with A27C, C29A, C53U, C54A
B4: target 1 MT 5'PFS UAA 3'PFS ACA (mixed)
RNA 1: B1 RNA 1
RNA 2: B1 RNA 2 with A27U, C29A, C54A
B5: target 1 MT 5'PFS GGG 3'PFS CGG (mixed)
RNA 1: B1 RNA 1
RNA 2: B1 RNA 2 with A27G, A28G, C29G, A52C, C53G, C54G
B6: target 1 MT 5'PFS CCA 3'PFS CAG (mixed)
RNA 1: B1 RNA 1
RNA 2: B1 RNA 2 with A27C, A28C, C29A, A52C, C53A, C54G
B7: target 1 MT 5'PFS GAC 3'PFS UCU (mixed)
RNA 1: B1 RNA 1
RNA 2: B1 RNA 2 with A27G, A52U, C54U
B8: target 1 MT 5'PFS GGG 3'PFS CGC (mixed)
RNA 1: B1 RNA 1
RNA 2: B1 RNA 2 with A27G, A28G, C29G, A52C, C53G
B9: target 1 MT 5'PFS GUU 3'PFS CAC (mixed)
RNA 1: B1 RNA 1
RNA 2: B1 RNA 2 with A27G, A28U, C29U, A52C, C53A
B10: target 1 del8,del22 (mixed)
RNA 1: B1 RNA 1
RNA 2: GGGAAUGGAUCCACAUCUACGAAUUCGUACAUAGAGAGGUUACCGCUCACCGAGAUCGGAAGAGCACACGU
B11: target 1 MT 5'PFS GUU 3'PFS CAA (mixed)
RNA 1: B1 RNA 1
RNA 2: B1 RNA 2 with A27G, A28U, C29U, A52C, C53A, C54A
B12: target 1 MT 5'PFS UAA 3'PFS ACG (mixed)
RNA 1: B1 RNA 1
RNA 2: B1 RNA 2 with A27U, C29A, C54G
B13: target 1 MT 5'PFS CAA 3'PFS AUC (mixed)
RNA 1: B1 RNA 1
RNA 2: B1 RNA 2 with A27C, C29A, C53U
B14: target 1 MT 5'PFS GAC 3'PFS AAA (mixed)
RNA 1: B1 RNA 1
RNA 2: B1 RNA 2 with A27G, C53A, C54A
B15: target 1 MT 5'PFS GAC 3'PFS UCC (mixed)
RNA 1: B1 RNA 1
RNA 2: B1 RNA 2 with A27G, A52U
B16: target 1 MT 5'PFS CCA 3'PFS CAC (mixed)
RNA 1: B1 RNA 1
RNA 2: B1 RNA 2 with A27C, A28C, C29A, A52C, C53A
B17: target 1 MT 5'PFS CCA 3'PFS CAU (mixed)
RNA 1: B1 RNA 1
RNA 2: B1 RNA 2 with A27C, A28C, C29A, A52C, C53A, C54U

Positions count from the first letter of the chain named.

This series addresses T1, EsCas13d, nuclease-dead. In words: crRNA (strand 1, pre-loaded); Mg2+; 40 mM Tris-HCl pH 7.5, 150 mM NaCl, 6 mM MgCl2, 1 mM DTT, 0.1% Tween-20, 0.2 mg/ml BSA; 25 C; 10 min per concentration, then washed. The note with it: tags: His6-TwinStrep-SUMO cleaved; N-terminal SNAP kept (SNAP-Surface 488); label: 3' end held by stalled T7 RNA polymerase.
On to B1, for which the Kd (in general, the constant that tells how readily two partners part at equilibrium) was approximately 43 nM.

B2 gave a Kd of 13.2 ± 1.9 nM.

Consider B3, for which the equilibrium dissociation constant (Kd) came out at 17.5 ± 7.5 nM.

Take B4: the dissociation constant (Kd) is 43.5 ± 17.5 nM.

As for B5, binding was characterised by a dissociation constant (Kd) of 37.5 ± 8 nM.

Molecule B6 came in with a Kd of 4.25 ± 1.3 nM.

For B7, binding was put at a Kd of 12.8 ± 4.8 nM.

B8 returned a Kd of 64 ± 30 nM.

In turn, B9 yielded a dissociation constant Kd of 22.5 ± 9 nM.

Turning to B10, the dissociation constant Kd amounted to 32.9 ± 1.7 nM.

B11: the dissociation constant (Kd) stood at 56.5 ± 22.5 nM.

For B12, the Kd is 25 ± 4.5 nM.

In turn, B13 yielded a Kd of approximately 32.5 nM.

Regarding B14, the Kd was approximately 51 nM.

Take B15: the dissociation constant Kd turned out to be 23 ± 9.3 nM.

In the case of B16, the Kd was approximately 9.5 nM.

Turning to B17, the affinity, expressed as Kd, was 6.55 ± 2.8 nM.
